Laboratory results taken from patent publication US20090325259A1, “USE OF ADHESION MOLECULES AS BOND STRESS-ENHANCED NANOSCALE BINDING SWITCHES” (priority 2002, published 2009).

How the values were obtained:
[1] = molecular target: Monomannosylated BSA (monomannose conjugated to bovine serum albumin) (bovine) (UniProt P02769); experiment: parallel plate flow chamber; new bacteria appearing on 1Man-BSA surface
[2] = molecular target: Monomannosylated BSA (monomannose conjugated to bovine serum albumin) (bovine) (UniProt P02769)

Sequence of Monomannosylated BSA (monomannose conjugated to bovine serum albumin) (bovine) (P02769 25-607 limits assumed): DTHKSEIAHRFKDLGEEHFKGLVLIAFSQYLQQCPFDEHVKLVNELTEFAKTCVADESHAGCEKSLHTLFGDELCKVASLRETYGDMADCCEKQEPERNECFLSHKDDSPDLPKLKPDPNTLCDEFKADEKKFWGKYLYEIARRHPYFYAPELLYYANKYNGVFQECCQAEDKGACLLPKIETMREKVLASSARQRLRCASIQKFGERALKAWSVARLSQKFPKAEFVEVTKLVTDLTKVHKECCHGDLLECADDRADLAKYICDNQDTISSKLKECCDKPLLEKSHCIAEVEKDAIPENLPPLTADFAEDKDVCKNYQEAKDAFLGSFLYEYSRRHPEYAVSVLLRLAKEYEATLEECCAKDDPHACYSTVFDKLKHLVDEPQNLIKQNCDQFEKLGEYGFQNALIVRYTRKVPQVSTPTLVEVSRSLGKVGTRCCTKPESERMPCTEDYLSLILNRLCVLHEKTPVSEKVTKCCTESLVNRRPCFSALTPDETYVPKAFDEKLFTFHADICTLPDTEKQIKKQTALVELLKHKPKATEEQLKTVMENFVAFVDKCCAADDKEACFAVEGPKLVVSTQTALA

Work on “FimH-f18 (FimH adhesin variant of intestinal E. coli strain F18), in type I fimbriae on recombinant E. coli (from UniProt P08191 22-300)” yielded an initial attachments per minute in the field of view, at 0.5 dynes/cm^2 (attachments per minute) [1] of 102, an initial attachments per minute in the field of view, at 3.6 dynes/cm^2 (attachments per minute) [1] of 64 and an initial attachments per minute in the field of view, at 7 dynes/cm^2 (attachments per minute) [1] of 32. For the same substance, the first-order rate constant of the decline of stationary bacteria [2] was 3 s⁻¹.
